Measurements: paper PMC4022642

Target: GST fusion of human TRESK cytoplasmic loop (amino acids 174-280) (human) (UniProt Q7Z418)
Assay: pull-down; GST-TRESK 174-280 on glutathione agarose; mouse brain cytosol; four pairs of independent assays; anti-tubulin β3 Western blot with densitometry (ImageJ)

Chain of UniProt Q7Z418 (Q7Z418 other isoform, or with tags, fused parts or gaps): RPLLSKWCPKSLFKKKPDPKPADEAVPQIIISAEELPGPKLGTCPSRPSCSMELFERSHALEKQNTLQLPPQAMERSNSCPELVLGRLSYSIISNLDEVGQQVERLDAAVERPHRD

densitometry counts of the anti-tubulin β3 immunoblot: 20500 counts
Substance: tubulin (mouse brain cytosol) (from UniProt P05213 1-451; Q9ERD7 1-450) (complex)
